According to the nanobody polyreactivity screen of Harvey et al. (2022):

Experiment: yeast display, Sf9 membrane polyspecificity reagent, FACS + sequencing; frameworks hold sequencing errors
Method in brief: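 A nanobody's polyreactivity label depends on the gate it was sorted from. Yeast display cells were stained with 10% biotinylated, detergent-solubilized Sf9 membrane reagent for 1 hour at 4 °C, enriched on streptavidin microbeads and sorted by FACS. The low and high (top ~1%) gates were set on anti-HA fluorescence for expression and streptavidin fluorescence for reagent binding.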

Sequence | polyreactivity (PSR sort gate)
QVQLVESGGGLVQAGGSLRLSCAASGRILDIYAMGWYRQAPGKDRELVAAINSDGRTYYADSVKGRFTISRDNAKNTVYLQMNSLKPEDTAVYYCNARHHNKVARFDYWGQGTQVTVSS | low polyreactivity
QVQLVESGGGLVQAGGSLRLSCAASGRTFGQNAMGWYRPAPGKERELVAAISRGGSTYYADSVKGRFTISRDNAKNTVYLQMNSLKPEDTAVYYCAAAKKSGVYLRLNYWGQGTQVTVSS | high polyreactivity
QVQLVESGGGLVQAGGSLRLSCAASGRTFSYYTMGWYRQAPGKERELVARISNRGTNTYYADSVKGRFTISRDNAKNTVYLQMNSLKPEDTAVYYCAATQPYWWAYRYDYWGQGTQVTVSS | low polyreactivity
QVHLVESGGGLVQAGGSLRLSCADSGRIILDYAMGWYRQAPGKERELVAAITWGGGSTNYADSVKGRFTNSRDNAKNTVYLQMNRLKPEDTAVYYCNADPHDQYDYWGKGTQVTVSS | low polyreactivity
QVQLVESGGCLVQAGGSLRLICAASGIILTQNAMGWYRQAPGKERELVAAITESGARTYYADSVKGRFTISRDNAKNTVYLQMNSLKPEDTAVYYCAAHTRTSGHNYWGQGTQVTVSS | low polyreactivity
QVQLVESGVGLVQAGGSLRLSCAASGYIFYYYAMGWYRQAPGKESELVAAISSTVSTNYADSVKGRFTISRDNAKNTVYLQMNSLKPEDTAVYYCAAAQRVNHVWYDYWGQGTQVTVSS | low polyreactivity
QVQLVESGGGLVQAGVSLRLSCAASGITLYRYVMGWNRQAPGKERELVADISGRGTSTYYADSVKGRFTSSRDYAKNTVYLQMYRLKPEATAVYYCNAEYTKTGALGIPYTYYYAEDYWGQGTQVTVSS | low polyreactivity
QVQLVESGGGLVQAGGSLRLISAASGITFDPYAMGWYRQAPGKEREFVAAITRRSASTYYADSVKGRFTISRDNAKNTVYLQMNSLKPEDTALYYCAARGKVPYNYWGQGTQVTVSS | high polyreactivity
QVQLVESGGGLVQAGGSLRLSCAASGITFYKYVMGWYRQAPGKETELVAAISSVGSTYYADSVKGRFTISRDNAKNTVYLQMNSLKPEDTAVYYCAAKYWKCYHYGFGYWGQGTQVTVSS | high polyreactivity
QVQLVESGGGLVQAGGSLRLSCAASGRTFGYYAMGWYRQAPGKERELVAAIRSTGSTNYADSVKGRFTISRDNAKNTVYLQMNSLKPDDTAVYYCNADPWWRFDYWGQGTQVTVSS | low polyreactivity
QVQLVESGGGLVQAGGSLRLSCDASGSTFIYYTMGWYRQAPGKERELVAAINGGGGSTYYADSVKGRFTISRDNAKNTVYLQMNSLKPEDTAVYYCATDPWHRAWGYGWGYNYWGQGTQVTVSS | low polyreactivity
QVQLVESGGGLVQAGGSLRLSCAASGRIFGYYAMGWYIQAHGKERELVAAINSGSRTYYADSVKGRFTISRDNAKNTVYLQMNSLKPEDTAVYYCAARVRYPPYRSSDGQRGGYWGQGTQVTVSS | high polyreactivity
QVQLVESGGGLVQAGGSLRLSCAASGRTIWWYAMGWYRQAPGKERELVAAITWIGGSTYYADSVKGRFTISRDNAKNTVYLQMNSLKPEDTAVYYCATDKDDVSDLGKDYAYFEYDYWGQGTQVTVSS | low polyreactivity
QVQLVESGGGLVQAGGSLRLSCAASGRIFSRYAMGWYRQAPGKERELVAAIASSGTTTYYADSVKGRFTISRDIAKNTVYLQMNSLKAEDTAVYYCATSAVRHIYWGQGTQVTVSS | high polyreactivity
QVQHVESGGRLVQAGGSLRLSCAASGFIFPNYAMGWYRQAPGKERELVAVISRSGGSTYYADSVKGRFTISRDNAKNTVYLQMNSLKPEDTAVYYCNAVARGYGYDYWGQGTQVTVSS | high polyreactivity
QVQLVESGGGLVQAGGSLRLSCAASGFTFKNYAMGWYRQAPGKEREFVATISSRGGSTYYADSVKGRFTISRDNAKNTVYLQMNSLKPEDPAVYYCAARYFSYGRSRQRHYYWGQGTQVTVSS | high polyreactivity
QVQLVESGGGLVQAGGSLRLSCAASGSILLFYVMGGYRQAPGKERELVAAITSSGGGTYYADSVKGRFTISRDNAKNTVYLQMNSLKPEDTALYYCNADDDYYGESYGPEFDYWGQGTQVTVSS | low polyreactivity
QVQLVESGGGLVQAGGSLRISSAASGSTFFRYDLGWYRPAPGKEWELVAAITASGTRTYYADSVKGRFTISRDNAKNTVYLQMNSLKPEDTAVYYCAADSRRYGYDYWGQGYQVTVSS | high polyreactivity
QVQLVESGGGLVQAGGSLRLSCAASGRTFVANAMGWYRQAPGKEREFVAAITGGDSTYYADSVKGRFTISRDNAKNTVYLQMNSLKPEDTAVYYCAAPYNFWNFFDLIYVWDGYDYWGQGTQVTVSS | low polyreactivity
QVQLVESGGCLVQAGGSLRLSCAASGLTFSRYAMGWYRQAPGKERELVASSSQGGGSTYYADSVKGRFTISRDNAKITVYFQMNSLIPEDTAVYYCAASWYYSLQRYGYWGQGTQETVSS | high polyreactivity
QVQLVESGGGLVHAGGSLRLSCAASGIIFPYNLMGWYRQAPGKERELVADITRGAASTYYADSVKGRFTISRVNAKNTVYFQMNRLKTEDTAVYFCNADGTWRTYNFWGQGTQVTVSS | high polyreactivity
QVQLVESGGGLVQAGGSLRLSCAASGSTFWYYAMGWYRQAPGKERELVADITYSGVSTYYADSVKGRFTISRDNAKNTVYLQMNSLKPEDTAVYYCNADWGSVNGYSGYYYWGQGTQVNVSS | low polyreactivity

Sequence | polyreactivity (PSR sort gate)
QVQLVESGGGLVQAGGSLRLSCAASGSIFGVYVMGWYRQAPGKERELVAAITRGASTNYADSVKGRFTISRDNAKNTVYLQMNSLKPEDTAVYYCAARQVSVSGHQYGYWGQGTQVTVSS | low polyreactivity
QVQLVESGGGLVQAGGRLRLSCSASGSTFYPNAMGWYRQAPGKERELGAAISWSGGSTYYADSVKGRFTISRDNAKKTVDLQMNSLKPEDTAVYYCAAYYYGVRKYDYWGQGTQVTVSS | high polyreactivity
QVQLVESGGGLVQAGGSLRLSCAASGRTFGSYAMAWYRQAPGKERELVAAITWSGTGTYYADSVKGRFTISRDNAKNTVYLQMKSLKPEVTAVYYCAARYASGRRGEYWGQGTQVTVSS | high polyreactivity
QVQLVESGGGLVQAGGSLRLSCAASGRTFYSYAMGWYRQAPGKERELVAAISRGGNTYYADSVKGRFTISRDNAKNTVSLQMNSLNPEDTAVYYCAVVRVTYYASIYHRGYDYWGQGTQVTVSS | low polyreactivity
QVQLVESGGGLVQAGGSLRLSCAASGSTFGYNAMGWYRQAPGKERELVAAISYSGGSTSYADSVKGRFTISRDNAKNTVYLQMNSLKPEDTAVYYCAADEGTGQASLSSNLYDYWGQGTQVTVSS | low polyreactivity
QVQLVESGGGLVQAGGSLRLSCAASGSIFGDNAMGWYRQAPGKERELVARISSGGNTYYADSVKGRFSISRDNAMNTVYLQMNSLKPEDTAVYYCAAAIIVRYKKFPYYYWGQGTQVTVSS | high polyreactivity
QVQLVESGGGLVQAGGSLRLSCASSGITFVVNAMVWYRQAPGKEREFVAAIDVRGGTTYYADSVKGRFTISRDNAKNSVYLQMNSLKPEDTAVYYCAASSTSGYDWGQGTQVTVSS | low polyreactivity
QVQLVESGGGLVQAGGSLRLSCAASGRTFVTNAMGWSRQAPGKERELVAAISSGDRTYYADSVKGRFTISRDNAKNTVYLQMNSLKPEDTAVYYCAKVSRRGIVGYWGQGTQVTVSS | high polyreactivity
QVQLVESGGGLVQAGGSLRLSCAASGSTFTVNGMGWYRQAPGKERELVASITWSGGSTYYADSVKGRFTISRDNAKNTVYLQLNSLKPEDTAVYYCNAVDTRVPSIRFDYWGQRTQVTVSS | low polyreactivity
QVQLVESGGGLVQAGGSLRLSCAASGRTFGNYAMGWYRQAPGKERELVAAITSAGRTYYADSVKGRFTISRDNAKNTVYLQMNSLKPEDTAVYYCNANRVSPYYWGQGTQVTVSS | low polyreactivity
QVQLVESGGGLVQAGGSLRFSCAASGSTFGYYAMGWYRQAPGKEREMVAVITYSGGSTYYADSVKGRFTISRDNAKNTVYLQMNSLKPEDTAVYYCATDNYDWSSWAFRGYWYDYWGQGTQVTVSS | low polyreactivity
QVQLVESGGGLVQAGGSLRLSCAASGRIFGGNAMGWYRQAPGKERELVAAISRNGGRTYYADSVKGRFTISRDNEKNTVYLQKNSLKPEDTAFYYCNAGYKEPHYYYWGQGTQVTVSS | high polyreactivity
QVQLVESGGGLVQAGGSLRLSCAASGTIFYDNDMGWYRQAPGKERELVAAISWSASDTYYADSVKGRFTISRDNAKNTVYLHINILKPEDTAVYYCNAEVYVWYFVYSALDYWGLGTQVTVSS | low polyreactivity
QVQLVESGGGLVQAGGSLRLSSAASGRTSLAYAMGWYRQAPGKERELVAVITSGGNTNYADSVKGRFTISRDNAKNTVYLQMNSLKPEDTAVYYCNKKKRWQWYSESVLDYLGFYSWGQGTQVTVSS | low polyreactivity
QVPLVESGGGLVQAGGSLRLSCAASGSIFLLYDMGWYRQAPGKERELVAAITWSGGSTYYADSVKGRFTISRDNAMNSVYLQMNSLKPEDTAVYYCAADEPYPTAYEYWGQGTQVTVSS | low polyreactivity
QVQLVESGGGLVQAGGSLRLSCAASGRTFRIYAMGWYRQAPGKEREFVAAITWSGGRTYYADSVKGRFTISRDNAKNTVYLQMNSLKPEDTAVYYCAADPTYLRTLRFGSYDYWGQGNQVTVSS | high polyreactivity
QVQLVESGGGLVQAGGSLRLSCAASGSTFYHYAMGWYRQAPGKERELVAAISTGGSTYYADSVKGRFTISRDNAKNTVYLQMNSLKPEDTAVYYCNARYIGGYGYWGQGTQVTVSS | low polyreactivity
QVQLVESAGRLVQAGGSLRLSCAASGFTFRKNAMGWYRQAPGKERELVAAITFSGGSTYYADSVKGRFTISRDNAKNTVYLQMNSLKPEDTAVYFCGTRYYYHYPRKHIYNYWGQGTQVTVSS | high polyreactivity
QVQLVESGGGLGQAGGSLRLSCAASGNTFWAYAMGWYRQAPGKERELVAGISSRGSRTYFADSVKGRFTISRDNAKNTVYLQMNSLKPEDSAVDFCNALRTPPGYYPPFDYWGEGTQVTVSS | high polyreactivity
QVQLVESGGGLVQAGGSLRLSCAASGSIRSYAMGWYRQAPGKERELVAAITRSGGSTYYADSVKGRFTISRDNAKNTVYLQMNSLKPEDTADYYCGARSTYSYPLFGSWGQGTQVTVSS | high polyreactivity
QVQLVESGGGLVQAGGSLRLSCAASGSTFGFNAMGWYRPAPGKEREFVAAINTSGGNTYYADSVKGRFTISRDNAKNTVYLQMNSLKPEDTAVYYCNAREGHLYGYPYGYWGQGTQVTVSS | low polyreactivity
